Source: article PMC9482650, “Quantitative fragmentomics allow affinity mapping of interactomes” (Nature Communications, 2022)

Target: T1, DFNB31_2, Q9P202
T1 sequence (Q9P202 274-371, limits assumed, looked up): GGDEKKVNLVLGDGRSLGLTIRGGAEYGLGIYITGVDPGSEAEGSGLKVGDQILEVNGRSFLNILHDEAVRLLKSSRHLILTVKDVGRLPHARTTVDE
Assay: holdup assay
Design: key: below the threshold = too weak to quantify, mostly under pKd 3.1 to 4
Conditions: plain residues with an end cap or a label only (N-terminal biotin on a linker: ado-ado)

Binder | pKd
KPDKQEEFYA [SDC3, O75056] | below the threshold
FVFESRKEIL [TBPL1, P62380] | below the threshold

Target: DLG2_2, Q15700
Sequence (Q15700 189-283): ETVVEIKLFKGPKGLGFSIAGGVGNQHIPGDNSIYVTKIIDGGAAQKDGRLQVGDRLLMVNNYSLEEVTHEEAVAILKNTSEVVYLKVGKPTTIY
Assay: holdup assay
Design: key: below the threshold = too weak to quantify, mostly under pKd 3.1 to 4
Conditions: plain residues with an end cap or a label only (N-terminal biotin on a linker: ado-ado)

Binder | pKd
KPDKQEEFYA [SDC3, O75056] | below the threshold
FVFESRKEIL [TBPL1, P62380] | below the threshold

Target: T2, DLG3_2, Q92796
T2 sequence (Q92796 221-321, limits assumed, looked up): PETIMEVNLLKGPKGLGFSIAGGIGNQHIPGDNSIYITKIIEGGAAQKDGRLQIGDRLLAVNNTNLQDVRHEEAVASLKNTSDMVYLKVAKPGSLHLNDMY
Assay: holdup assay
Design: key: below the threshold = too weak to quantify, mostly under pKd 3.1 to 4
Conditions: plain residues with an end cap or a label only (N-terminal biotin on a linker: ado-ado)

Binder | pKd
KPDKQEEFYA [SDC3, O75056] | 4.05
FVFESRKEIL [TBPL1, P62380] | below the threshold

Target: T3, DLG3_3, Q92796
T3 sequence (Q92796 374-475, limits assumed, looked up): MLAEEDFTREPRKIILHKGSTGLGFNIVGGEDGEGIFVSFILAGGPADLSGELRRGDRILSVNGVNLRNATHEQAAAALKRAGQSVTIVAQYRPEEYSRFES
Assay: holdup assay
Design: key: below the threshold = too weak to quantify, mostly under pKd 3.1 to 4
Conditions: plain residues with an end cap or a label only (N-terminal biotin on a linker: ado-ado)

Binder | pKd
KPDKQEEFYA [SDC3, O75056] | below the threshold
FVFESRKEIL [TBPL1, P62380] | below the threshold

Target: DLG4_2, P78352
Sequence (P78352 155-259): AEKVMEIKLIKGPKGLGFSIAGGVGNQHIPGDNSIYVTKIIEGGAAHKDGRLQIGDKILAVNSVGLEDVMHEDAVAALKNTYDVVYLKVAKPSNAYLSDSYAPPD
Assay: holdup assay
Design: key: below the threshold = too weak to quantify, mostly under pKd 3.1 to 4
Conditions: plain residues with an end cap or a label only (N-terminal biotin on a linker: ado-ado)

Binder | pKd
KPDKQEEFYA [SDC3, O75056] | below the threshold
FVFESRKEIL [TBPL1, P62380] | below the threshold

Target: GORASP2, Q9H8Y8
Assay: holdup assay
Design: key: below the threshold = too weak to quantify, mostly under pKd 3.1 to 4
Conditions: plain residues with an end cap or a label only (N-terminal biotin on a linker: ado-ado)

Binder | pKd
KPDKQEEFYA [SDC3, O75056] | below the threshold
FVFESRKEIL [TBPL1, P62380] | below the threshold

Target: T4, GRIP1_2, Q9Y3R0
T4 sequence (Q9Y3R0 145-248, limits assumed, looked up): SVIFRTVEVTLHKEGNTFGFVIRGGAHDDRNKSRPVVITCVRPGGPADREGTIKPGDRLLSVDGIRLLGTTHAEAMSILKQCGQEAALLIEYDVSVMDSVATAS
Assay: holdup assay
Design: key: below the threshold = too weak to quantify, mostly under pKd 3.1 to 4
Conditions: plain residues with an end cap or a label only (N-terminal biotin on a linker: ado-ado)

Binder | pKd
KPDKQEEFYA [SDC3, O75056] | below the threshold
FVFESRKEIL [TBPL1, P62380] | below the threshold

Target: T5, GRIP1_4, Q9Y3R0
T5 sequence (Q9Y3R0 467-571, limits assumed, looked up): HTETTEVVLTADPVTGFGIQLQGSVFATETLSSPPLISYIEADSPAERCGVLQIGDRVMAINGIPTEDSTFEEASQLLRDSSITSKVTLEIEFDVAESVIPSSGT
Assay: holdup assay
Design: key: below the threshold = too weak to quantify, mostly under pKd 3.1 to 4
Conditions: plain residues with an end cap or a label only (N-terminal biotin on a linker: ado-ado)

Binder | pKd
KPDKQEEFYA [SDC3, O75056] | below the threshold
FVFESRKEIL [TBPL1, P62380] | below the threshold

Target: HTRA1, Q92743
Sequence (Q92743 360-477): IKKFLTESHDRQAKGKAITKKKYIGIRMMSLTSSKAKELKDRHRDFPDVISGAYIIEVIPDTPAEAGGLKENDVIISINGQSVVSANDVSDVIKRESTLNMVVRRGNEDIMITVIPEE
Assay: holdup assay
Design: key: below the threshold = too weak to quantify, mostly under pKd 3.1 to 4
Conditions: plain residues with an end cap or a label only (N-terminal biotin on a linker: ado-ado)

Binder | pKd
KPDKQEEFYA [SDC3, O75056] | 4.9
FVFESRKEIL [TBPL1, P62380] | 3.89

Target: T6, HTRA3, P83110
T6 sequence (P83110 354-453, limits assumed, looked up): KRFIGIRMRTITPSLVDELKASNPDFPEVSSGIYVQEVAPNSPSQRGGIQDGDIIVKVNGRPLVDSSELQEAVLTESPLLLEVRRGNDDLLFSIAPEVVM
Assay: holdup assay
Design: key: below the threshold = too weak to quantify, mostly under pKd 3.1 to 4
Conditions: plain residues with an end cap or a label only (N-terminal biotin on a linker: ado-ado)

Binder | pKd
KPDKQEEFYA [SDC3, O75056] | 4.41
FVFESRKEIL [TBPL1, P62380] | below the threshold

Target: IL16_1, Q14005
Sequence (Q14005 210-306): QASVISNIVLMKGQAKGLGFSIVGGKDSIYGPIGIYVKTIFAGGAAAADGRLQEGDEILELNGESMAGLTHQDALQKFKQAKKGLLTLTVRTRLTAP
Assay: holdup assay
Design: key: below the threshold = too weak to quantify, mostly under pKd 3.1 to 4
Conditions: plain residues with an end cap or a label only (N-terminal biotin on a linker: ado-ado)

Binder | pKd
KPDKQEEFYA [SDC3, O75056] | below the threshold
FVFESRKEIL [TBPL1, P62380] | below the threshold

Target: Inadl_10, Q8NI35
Sequence (Q8NI35 1673-1763): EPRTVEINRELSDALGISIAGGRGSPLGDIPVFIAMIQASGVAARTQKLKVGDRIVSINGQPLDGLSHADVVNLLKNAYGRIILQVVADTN
Assay: holdup assay
Design: key: below the threshold = too weak to quantify, mostly under pKd 3.1 to 4
Conditions: plain residues with an end cap or a label only (N-terminal biotin on a linker: ado-ado)

Binder | pKd
KPDKQEEFYA [SDC3, O75056] | below the threshold
FVFESRKEIL [TBPL1, P62380] | below the threshold

Target: Inadl_5, Q8NI35
Sequence (Q8NI35 673-780): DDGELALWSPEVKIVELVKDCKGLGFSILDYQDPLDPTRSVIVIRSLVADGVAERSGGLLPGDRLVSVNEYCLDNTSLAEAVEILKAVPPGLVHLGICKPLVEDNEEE
Assay: holdup assay
Design: key: below the threshold = too weak to quantify, mostly under pKd 3.1 to 4
Conditions: plain residues with an end cap or a label only (N-terminal biotin on a linker: ado-ado)

Binder | pKd
KPDKQEEFYA [SDC3, O75056] | below the threshold
FVFESRKEIL [TBPL1, P62380] | below the threshold

Target: Inadl_9, Q8NI35
Sequence (Q8NI35 1530-1615): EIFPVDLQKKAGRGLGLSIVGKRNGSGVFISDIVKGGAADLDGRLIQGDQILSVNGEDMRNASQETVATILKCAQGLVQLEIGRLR
Assay: holdup assay
Design: key: below the threshold = too weak to quantify, mostly under pKd 3.1 to 4
Conditions: plain residues with an end cap or a label only (N-terminal biotin on a linker: ado-ado)

Binder | pKd
KPDKQEEFYA [SDC3, O75056] | below the threshold
FVFESRKEIL [TBPL1, P62380] | below the threshold

Target: LAP2, Q96RT1
Sequence (Q96RT1 other isoform, or with tags, fused parts or gaps): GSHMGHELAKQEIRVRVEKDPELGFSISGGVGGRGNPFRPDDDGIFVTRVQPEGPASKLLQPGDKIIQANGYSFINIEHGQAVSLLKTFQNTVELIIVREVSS
Assay: holdup assay
Design: key: below the threshold = too weak to quantify, mostly under pKd 3.1 to 4
Conditions: plain residues with an end cap or a label only (N-terminal biotin on a linker: ado-ado)

Binder | pKd
KPDKQEEFYA [SDC3, O75056] | below the threshold
FVFESRKEIL [TBPL1, P62380] | below the threshold

Target: T7, LIN7B, Q9HAP6
T7 sequence (Q9HAP6 88-185, limits assumed, looked up): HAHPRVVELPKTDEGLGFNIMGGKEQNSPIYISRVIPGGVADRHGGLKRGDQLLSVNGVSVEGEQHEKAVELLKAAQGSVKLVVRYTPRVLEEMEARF
Assay: holdup assay
Design: key: below the threshold = too weak to quantify, mostly under pKd 3.1 to 4
Conditions: plain residues with an end cap or a label only (N-terminal biotin on a linker: ado-ado)

Binder | pKd
KPDKQEEFYA [SDC3, O75056] | 3.78
FVFESRKEIL [TBPL1, P62380] | below the threshold

Target: T8, MPDZ_10, O75970
T8 sequence (O75970 1624-1722, limits assumed, looked up): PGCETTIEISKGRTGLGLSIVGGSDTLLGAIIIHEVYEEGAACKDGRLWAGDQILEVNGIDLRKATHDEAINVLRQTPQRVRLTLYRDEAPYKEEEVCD
Assay: holdup assay
Design: key: below the threshold = too weak to quantify, mostly under pKd 3.1 to 4
Conditions: plain residues with an end cap or a label only (N-terminal biotin on a linker: ado-ado)

Binder | pKd
KPDKQEEFYA [SDC3, O75056] | below the threshold
FVFESRKEIL [TBPL1, P62380] | below the threshold

Target: NHERF4_4, Q86UT5
Sequence (Q86UT5 464-550): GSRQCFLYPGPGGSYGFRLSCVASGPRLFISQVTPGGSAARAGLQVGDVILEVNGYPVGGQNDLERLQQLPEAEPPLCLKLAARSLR
Assay: holdup assay
Design: key: below the threshold = too weak to quantify, mostly under pKd 3.1 to 4
Conditions: plain residues with an end cap or a label only (N-terminal biotin on a linker: ado-ado)

Binder | pKd
KPDKQEEFYA [SDC3, O75056] | below the threshold
FVFESRKEIL [TBPL1, P62380] | below the threshold

Target: NOS1, P29475
Sequence (P29475 9-101): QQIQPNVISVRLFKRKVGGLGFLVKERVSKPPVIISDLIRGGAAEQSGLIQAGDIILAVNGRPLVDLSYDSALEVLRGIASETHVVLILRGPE
Assay: holdup assay
Design: key: below the threshold = too weak to quantify, mostly under pKd 3.1 to 4
Conditions: plain residues with an end cap or a label only (N-terminal biotin on a linker: ado-ado)

Binder | pKd
KPDKQEEFYA [SDC3, O75056] | below the threshold
FVFESRKEIL [TBPL1, P62380] | 3.68

Target: T9, PARD3B_1, Q8TEW8
T9 sequence (Q8TEW8 196-299, limits assumed, looked up): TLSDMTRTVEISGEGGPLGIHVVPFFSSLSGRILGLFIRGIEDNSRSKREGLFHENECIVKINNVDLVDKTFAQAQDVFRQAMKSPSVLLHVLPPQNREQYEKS
Assay: holdup assay
Design: key: below the threshold = too weak to quantify, mostly under pKd 3.1 to 4
Conditions: plain residues with an end cap or a label only (N-terminal biotin on a linker: ado-ado)

Binder | pKd
KPDKQEEFYA [SDC3, O75056] | 4.65
FVFESRKEIL [TBPL1, P62380] | 4.12

Target: T10, PTPN13_1, Q12923
T10 sequence (Q12923 1088-1188, limits assumed, looked up): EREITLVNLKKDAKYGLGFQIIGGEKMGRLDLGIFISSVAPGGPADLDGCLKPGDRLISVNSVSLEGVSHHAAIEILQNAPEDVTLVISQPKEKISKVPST
Assay: holdup assay
Design: key: below the threshold = too weak to quantify, mostly under pKd 3.1 to 4
Conditions: plain residues with an end cap or a label only (N-terminal biotin on a linker: ado-ado)

Binder | pKd
KPDKQEEFYA [SDC3, O75056] | below the threshold
FVFESRKEIL [TBPL1, P62380] | below the threshold

Target: T11, RHPN1, Q8TCX5
T11 sequence (Q8TCX5 508-602, limits assumed, looked up): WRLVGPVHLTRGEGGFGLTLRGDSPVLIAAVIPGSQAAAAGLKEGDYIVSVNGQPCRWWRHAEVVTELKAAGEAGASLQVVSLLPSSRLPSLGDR
Assay: holdup assay
Design: key: below the threshold = too weak to quantify, mostly under pKd 3.1 to 4
Conditions: plain residues with an end cap or a label only (N-terminal biotin on a linker: ado-ado)

Binder | pKd
KPDKQEEFYA [SDC3, O75056] | below the threshold
FVFESRKEIL [TBPL1, P62380] | below the threshold

Target: T12, SYNJ2BP, P57105
T12 sequence (P57105 8-110, limits assumed, looked up): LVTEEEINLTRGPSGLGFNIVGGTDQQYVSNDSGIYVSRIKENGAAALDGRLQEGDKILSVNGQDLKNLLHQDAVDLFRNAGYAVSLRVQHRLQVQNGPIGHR
Assay: holdup assay
Design: key: below the threshold = too weak to quantify, mostly under pKd 3.1 to 4
Conditions: plain residues with an end cap or a label only (N-terminal biotin on a linker: ado-ado)

Binder | pKd
KPDKQEEFYA [SDC3, O75056] | below the threshold
FVFESRKEIL [TBPL1, P62380] | below the threshold

Target: TJP1_3, Q07157
Sequence (Q07157 416-512): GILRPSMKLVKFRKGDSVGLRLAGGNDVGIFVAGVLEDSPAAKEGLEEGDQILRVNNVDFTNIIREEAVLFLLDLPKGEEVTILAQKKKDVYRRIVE
Assay: holdup assay
Design: key: below the threshold = too weak to quantify, mostly under pKd 3.1 to 4
Conditions: plain residues with an end cap or a label only (N-terminal biotin on a linker: ado-ado)

Binder | pKd
KPDKQEEFYA [SDC3, O75056] | below the threshold
FVFESRKEIL [TBPL1, P62380] | below the threshold

Target: TJP2_1, Q9UDY2
Sequence (Q9UDY2 24-128): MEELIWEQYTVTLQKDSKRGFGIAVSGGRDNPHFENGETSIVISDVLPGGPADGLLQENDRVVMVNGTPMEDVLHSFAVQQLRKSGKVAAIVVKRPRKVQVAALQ
Assay: holdup assay
Design: key: below the threshold = too weak to quantify, mostly under pKd 3.1 to 4
Conditions: plain residues with an end cap or a label only (N-terminal biotin on a linker: ado-ado)

Binder | pKd
KPDKQEEFYA [SDC3, O75056] | below the threshold
FVFESRKEIL [TBPL1, P62380] | below the threshold
